Legend:
[1] = molecular target: 40S ribosomal protein S14 (Homo sapiens) (UniProt P62263); assay: anti-FLAG co-IP LC-MS, exp 3, +IFNg +Dox
[2] = molecular target: 40S ribosomal protein S3a (Homo sapiens) (UniProt P61247); assay: anti-FLAG co-IP LC-MS, exp 3, +IFNg +Dox
[3] = molecular target: 4F2 cell-surface antigen heavy chain (Homo sapiens) (UniProt P08195); assay: anti-FLAG co-IP LC-MS, exp 3, +IFNg +Dox
[4] = molecular target: 60S ribosomal protein L3 (Homo sapiens) (UniProt P39023); assay: anti-FLAG co-IP LC-MS, exp 3, +IFNg +Dox
[5] = molecular target: AP-2 complex subunit alpha-1 (Homo sapiens) (UniProt O95782); assay: anti-FLAG co-IP LC-MS, exp 3, +IFNg +Dox
[6] = molecular target: ATP synthase subunit alpha, mitochondrial (Homo sapiens) (UniProt P25705); assay: anti-FLAG co-IP LC-MS, exp 3, +IFNg +Dox
[7] = molecular target: Aspartyl/asparaginyl beta-hydroxylase (Homo sapiens) (UniProt Q12797); assay: anti-FLAG co-IP LC-MS, exp 3, +IFNg +Dox
[8] = molecular target: Caveolae-associated protein 1 (Homo sapiens) (UniProt Q6NZI2); assay: anti-FLAG co-IP LC-MS, exp 3, +IFNg +Dox
[9] = molecular target: Importin subunit beta-1 (Homo sapiens) (UniProt Q14974); assay: anti-FLAG co-IP LC-MS, exp 3, +IFNg +Dox
[10] = molecular target: Junctional sarcoplasmic reticulum protein 1 (Homo sapiens) (UniProt Q96MG2); assay: anti-FLAG co-IP LC-MS, exp 3, +IFNg +Dox
[11] = molecular target: Myosin regulatory light chain 12A (Homo sapiens) (UniProt J3QRS3); assay: anti-FLAG co-IP LC-MS, exp 3, +IFNg +Dox
Myosin-9 (Homo sapiens) = Myosin-9 (Homo sapiens) (UniProt P35579); assay: anti-FLAG co-IP LC-MS, exp 3, +IFNg +Dox
[12] = molecular target: Polypyrimidine tract-binding protein 1 (Homo sapiens) (UniProt P26599); assay: anti-FLAG co-IP LC-MS, exp 3, +IFNg +Dox
[13] = molecular target: Probable ATP-dependent RNA helicase DDX6 (Homo sapiens) (UniProt P26196); assay: anti-FLAG co-IP LC-MS, exp 3, +IFNg +Dox
[14] = molecular target: Probable ubiquitin carboxyl-terminal hydrolase FAF-X (Homo sapiens) (UniProt Q93008); assay: anti-FLAG co-IP LC-MS, exp 3, +IFNg +Dox
[15] = molecular target: Protein disulfide-isomerase (Homo sapiens) (UniProt P07237); assay: anti-FLAG co-IP LC-MS, exp 3, +IFNg +Dox
[16] = molecular target: Ras GTPase-activating protein-binding protein 1 (Homo sapiens) (UniProt Q13283); assay: anti-FLAG co-IP LC-MS, exp 3, +IFNg +Dox
[17] = molecular target: Serine/threonine-protein phosphatase 2A 65 kDa regulatory subunit A alpha isoform (Homo sapiens) (UniProt P30153); assay: anti-FLAG co-IP LC-MS, exp 3, +IFNg +Dox
[18] = molecular target: Stress-70 protein, mitochondrial (Homo sapiens) (UniProt P38646); assay: anti-FLAG co-IP LC-MS, exp 3, +IFNg +Dox
[19] = molecular target: Tubulin beta chain (Homo sapiens) (UniProt P07437); assay: anti-FLAG co-IP LC-MS, exp 3, +IFNg +Dox
[20] = molecular target: Tubulin beta-4B chain (Homo sapiens) (UniProt P68371); assay: anti-FLAG co-IP LC-MS, exp 3, +IFNg +Dox
[21] = molecular target: WD repeat-containing protein 1 (Homo sapiens) (UniProt O75083); assay: anti-FLAG co-IP LC-MS, exp 3, +IFNg +Dox
[22] = molecular target: X-ray repair cross-complementing protein 5 (Homo sapiens) (UniProt P13010); assay: anti-FLAG co-IP LC-MS, exp 3, +IFNg +Dox
[23] = molecular target: 60S ribosomal protein L8 (Homo sapiens) (UniProt P62917); assay: anti-FLAG co-IP LC-MS, exp 4, +Dox +IFNG
[24] = molecular target: ADP/ATP translocase 2 (Homo sapiens) (UniProt P05141); assay: anti-FLAG co-IP LC-MS, exp 4, +Dox +IFNG
[25] = molecular target: Endoplasmic reticulum chaperone BiP (Homo sapiens) (UniProt P11021); assay: anti-FLAG co-IP LC-MS, exp 4, +Dox +IFNG
[26] = molecular target: Eukaryotic initiation factor 4A-II (Homo sapiens) (UniProt Q14240); assay: anti-FLAG co-IP LC-MS, exp 4, +Dox +IFNG
Filamin-C (Homo sapiens) = Filamin-C (Homo sapiens) (UniProt Q14315); assay: anti-FLAG co-IP LC-MS, exp 4, +Dox +IFNG
[27] = molecular target: Neuroblast differentiation-associated protein AHNAK (Homo sapiens) (UniProt Q09666); assay: anti-FLAG co-IP LC-MS, exp 4, +Dox +IFNG
[28] = molecular target: Plasminogen activator inhibitor 1 (Homo sapiens) (UniProt P05121); assay: anti-FLAG co-IP LC-MS, exp 4, +Dox +IFNG
[29] = molecular target: Prelamin-A/C (Homo sapiens) (UniProt P02545); assay: anti-FLAG co-IP LC-MS, exp 4, +Dox +IFNG
[30] = molecular target: Procollagen-lysine, 2-oxoglutarate 5-dioxygenase 1 (Homo sapiens) (UniProt Q02809); assay: anti-FLAG co-IP LC-MS, exp 4, +Dox +IFNG
Talin-1 (Homo sapiens) = Talin-1 (Homo sapiens) (UniProt Q9Y490); assay: anti-FLAG co-IP LC-MS, exp 4, +Dox +IFNG
[31] = molecular target: Tubulin alpha chain (Homo sapiens) (UniProt F5H5D3); assay: anti-FLAG co-IP LC-MS, exp 4, +Dox +IFNG
[32] = molecular target: Tubulin beta chain (Homo sapiens) (UniProt P07437); assay: anti-FLAG co-IP LC-MS, exp 4, +Dox +IFNG
Vimentin (Homo sapiens) = Vimentin (Homo sapiens) (UniProt P08670); assay: anti-FLAG co-IP LC-MS, exp 4, +Dox +IFNG

Sequence of Tubulin beta chain (Homo sapiens) (P07437 whole entry): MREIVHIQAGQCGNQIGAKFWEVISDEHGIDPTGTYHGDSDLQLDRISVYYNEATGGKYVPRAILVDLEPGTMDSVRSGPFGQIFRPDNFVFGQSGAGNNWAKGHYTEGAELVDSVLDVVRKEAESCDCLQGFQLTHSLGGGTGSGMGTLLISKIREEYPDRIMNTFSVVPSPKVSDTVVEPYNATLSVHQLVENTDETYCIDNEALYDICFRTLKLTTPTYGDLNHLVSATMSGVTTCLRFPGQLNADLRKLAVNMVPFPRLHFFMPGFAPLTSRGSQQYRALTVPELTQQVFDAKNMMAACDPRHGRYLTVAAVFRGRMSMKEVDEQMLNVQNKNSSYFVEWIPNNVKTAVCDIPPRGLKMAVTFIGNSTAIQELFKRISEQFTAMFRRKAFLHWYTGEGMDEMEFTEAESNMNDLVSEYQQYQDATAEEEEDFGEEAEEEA
Sequence of Probable ubiquitin carboxyl-terminal hydrolase FAF-X (Homo sapiens) (Q93008 whole entry): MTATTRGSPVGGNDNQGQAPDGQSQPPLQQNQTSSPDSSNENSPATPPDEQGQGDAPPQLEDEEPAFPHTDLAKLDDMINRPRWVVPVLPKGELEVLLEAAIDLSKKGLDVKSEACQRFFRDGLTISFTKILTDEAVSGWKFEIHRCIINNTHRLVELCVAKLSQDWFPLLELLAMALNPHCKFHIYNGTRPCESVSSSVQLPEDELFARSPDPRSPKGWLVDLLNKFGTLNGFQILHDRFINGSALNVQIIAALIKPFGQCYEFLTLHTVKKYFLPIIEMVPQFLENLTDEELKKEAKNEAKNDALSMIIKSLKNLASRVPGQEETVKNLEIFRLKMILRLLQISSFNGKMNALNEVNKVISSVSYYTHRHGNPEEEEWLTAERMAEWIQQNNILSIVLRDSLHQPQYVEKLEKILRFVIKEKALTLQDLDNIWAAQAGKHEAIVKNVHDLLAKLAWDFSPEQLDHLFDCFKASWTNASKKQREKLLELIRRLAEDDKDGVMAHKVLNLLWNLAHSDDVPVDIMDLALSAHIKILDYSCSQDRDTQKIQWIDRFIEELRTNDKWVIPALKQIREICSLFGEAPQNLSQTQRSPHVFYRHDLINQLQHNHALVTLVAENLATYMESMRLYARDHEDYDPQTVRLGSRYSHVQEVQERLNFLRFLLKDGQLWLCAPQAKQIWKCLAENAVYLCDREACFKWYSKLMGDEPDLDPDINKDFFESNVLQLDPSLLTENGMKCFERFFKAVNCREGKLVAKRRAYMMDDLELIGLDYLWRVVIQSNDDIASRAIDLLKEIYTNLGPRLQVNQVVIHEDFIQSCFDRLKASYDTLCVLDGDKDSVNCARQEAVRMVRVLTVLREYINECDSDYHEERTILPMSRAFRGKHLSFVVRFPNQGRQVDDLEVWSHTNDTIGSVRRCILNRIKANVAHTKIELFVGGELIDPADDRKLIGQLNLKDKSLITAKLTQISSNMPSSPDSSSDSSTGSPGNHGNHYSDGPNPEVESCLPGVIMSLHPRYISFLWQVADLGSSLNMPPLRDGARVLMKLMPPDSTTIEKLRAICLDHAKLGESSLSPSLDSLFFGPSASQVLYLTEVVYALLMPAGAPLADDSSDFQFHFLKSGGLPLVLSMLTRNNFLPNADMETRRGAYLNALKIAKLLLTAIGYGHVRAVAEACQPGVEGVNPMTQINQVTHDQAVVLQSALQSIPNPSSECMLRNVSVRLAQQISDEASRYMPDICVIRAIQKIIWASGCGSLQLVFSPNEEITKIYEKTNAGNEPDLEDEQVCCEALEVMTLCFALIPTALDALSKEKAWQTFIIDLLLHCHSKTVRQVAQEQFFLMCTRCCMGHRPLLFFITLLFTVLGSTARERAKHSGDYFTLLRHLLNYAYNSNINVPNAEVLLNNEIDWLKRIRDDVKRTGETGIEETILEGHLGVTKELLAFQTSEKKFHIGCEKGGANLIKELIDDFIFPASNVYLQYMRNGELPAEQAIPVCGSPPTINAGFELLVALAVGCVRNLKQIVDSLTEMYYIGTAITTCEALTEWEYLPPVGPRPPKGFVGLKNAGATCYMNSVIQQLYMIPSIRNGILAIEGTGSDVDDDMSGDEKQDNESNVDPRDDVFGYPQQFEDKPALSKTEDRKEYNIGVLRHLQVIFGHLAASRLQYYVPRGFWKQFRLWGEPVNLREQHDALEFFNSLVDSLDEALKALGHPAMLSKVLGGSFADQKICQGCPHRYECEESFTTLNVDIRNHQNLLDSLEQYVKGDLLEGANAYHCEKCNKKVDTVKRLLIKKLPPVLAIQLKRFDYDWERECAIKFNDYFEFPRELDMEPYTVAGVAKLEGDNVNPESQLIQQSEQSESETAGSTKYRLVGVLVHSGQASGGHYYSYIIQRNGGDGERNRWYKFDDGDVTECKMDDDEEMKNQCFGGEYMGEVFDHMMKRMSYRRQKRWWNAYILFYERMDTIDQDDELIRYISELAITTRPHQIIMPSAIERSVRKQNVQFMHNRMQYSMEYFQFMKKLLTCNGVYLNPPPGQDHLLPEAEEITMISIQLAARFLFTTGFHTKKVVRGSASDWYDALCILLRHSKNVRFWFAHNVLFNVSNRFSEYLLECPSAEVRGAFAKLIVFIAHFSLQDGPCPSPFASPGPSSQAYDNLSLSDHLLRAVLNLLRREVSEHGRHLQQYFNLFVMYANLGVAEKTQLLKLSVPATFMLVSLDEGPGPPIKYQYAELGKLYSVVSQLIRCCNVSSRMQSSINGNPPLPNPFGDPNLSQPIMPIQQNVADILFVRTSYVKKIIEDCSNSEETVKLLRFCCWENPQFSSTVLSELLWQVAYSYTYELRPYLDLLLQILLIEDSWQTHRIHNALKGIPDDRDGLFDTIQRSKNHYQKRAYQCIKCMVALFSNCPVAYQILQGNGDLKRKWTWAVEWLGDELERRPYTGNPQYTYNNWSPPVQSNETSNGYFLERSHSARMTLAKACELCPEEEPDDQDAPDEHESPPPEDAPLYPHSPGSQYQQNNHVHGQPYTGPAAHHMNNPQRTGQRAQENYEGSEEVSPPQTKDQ
Sequence of Caveolae-associated protein 1 (Homo sapiens) (Q6NZI2 whole entry): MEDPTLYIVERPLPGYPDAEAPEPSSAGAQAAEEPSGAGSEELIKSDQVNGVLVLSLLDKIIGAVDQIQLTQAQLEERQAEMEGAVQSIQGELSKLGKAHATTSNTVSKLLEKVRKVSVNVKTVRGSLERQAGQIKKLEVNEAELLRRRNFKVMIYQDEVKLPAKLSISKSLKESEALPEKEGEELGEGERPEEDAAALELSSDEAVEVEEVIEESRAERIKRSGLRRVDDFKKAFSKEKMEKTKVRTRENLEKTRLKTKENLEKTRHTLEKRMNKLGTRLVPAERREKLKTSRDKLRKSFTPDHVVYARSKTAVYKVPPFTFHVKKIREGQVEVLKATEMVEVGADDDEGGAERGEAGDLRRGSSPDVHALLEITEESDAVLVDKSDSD
Sequence of Plasminogen activator inhibitor 1 (Homo sapiens) (P05121 24-402 limits assumed): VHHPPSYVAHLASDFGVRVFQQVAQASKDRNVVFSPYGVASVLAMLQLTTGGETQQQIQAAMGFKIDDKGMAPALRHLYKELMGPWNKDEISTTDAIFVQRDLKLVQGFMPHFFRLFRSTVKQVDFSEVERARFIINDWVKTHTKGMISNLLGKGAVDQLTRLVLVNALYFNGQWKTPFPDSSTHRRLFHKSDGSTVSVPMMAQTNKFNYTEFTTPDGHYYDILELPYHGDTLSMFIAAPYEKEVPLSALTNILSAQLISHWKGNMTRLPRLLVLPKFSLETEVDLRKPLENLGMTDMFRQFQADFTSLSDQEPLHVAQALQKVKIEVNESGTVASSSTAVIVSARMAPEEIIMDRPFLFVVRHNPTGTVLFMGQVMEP
Sequence of Junctional sarcoplasmic reticulum protein 1 (Homo sapiens) (Q96MG2 whole entry): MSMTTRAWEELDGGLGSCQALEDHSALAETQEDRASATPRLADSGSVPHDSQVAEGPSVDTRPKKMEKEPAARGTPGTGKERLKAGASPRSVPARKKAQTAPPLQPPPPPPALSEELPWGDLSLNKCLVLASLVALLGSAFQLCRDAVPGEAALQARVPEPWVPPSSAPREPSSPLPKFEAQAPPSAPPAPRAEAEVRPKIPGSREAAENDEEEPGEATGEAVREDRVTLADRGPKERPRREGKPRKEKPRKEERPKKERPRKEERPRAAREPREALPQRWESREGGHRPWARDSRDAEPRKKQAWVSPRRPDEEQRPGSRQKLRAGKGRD
Sequence of Tubulin beta-4B chain (Homo sapiens) (P68371 whole entry): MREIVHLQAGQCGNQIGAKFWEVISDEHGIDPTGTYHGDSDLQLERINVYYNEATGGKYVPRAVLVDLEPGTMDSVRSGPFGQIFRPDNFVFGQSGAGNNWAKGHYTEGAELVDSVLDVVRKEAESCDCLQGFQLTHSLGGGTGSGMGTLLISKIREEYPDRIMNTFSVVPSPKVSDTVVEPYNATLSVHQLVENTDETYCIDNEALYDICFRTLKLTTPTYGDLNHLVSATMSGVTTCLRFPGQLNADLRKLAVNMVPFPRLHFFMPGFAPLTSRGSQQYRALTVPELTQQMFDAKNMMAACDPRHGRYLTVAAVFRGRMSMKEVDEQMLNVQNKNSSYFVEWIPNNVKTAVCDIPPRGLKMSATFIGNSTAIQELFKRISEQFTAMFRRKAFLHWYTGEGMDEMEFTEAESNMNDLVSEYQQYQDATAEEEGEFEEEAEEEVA
Sequence of 4F2 cell-surface antigen heavy chain (Homo sapiens) (P08195 103-630 limits assumed): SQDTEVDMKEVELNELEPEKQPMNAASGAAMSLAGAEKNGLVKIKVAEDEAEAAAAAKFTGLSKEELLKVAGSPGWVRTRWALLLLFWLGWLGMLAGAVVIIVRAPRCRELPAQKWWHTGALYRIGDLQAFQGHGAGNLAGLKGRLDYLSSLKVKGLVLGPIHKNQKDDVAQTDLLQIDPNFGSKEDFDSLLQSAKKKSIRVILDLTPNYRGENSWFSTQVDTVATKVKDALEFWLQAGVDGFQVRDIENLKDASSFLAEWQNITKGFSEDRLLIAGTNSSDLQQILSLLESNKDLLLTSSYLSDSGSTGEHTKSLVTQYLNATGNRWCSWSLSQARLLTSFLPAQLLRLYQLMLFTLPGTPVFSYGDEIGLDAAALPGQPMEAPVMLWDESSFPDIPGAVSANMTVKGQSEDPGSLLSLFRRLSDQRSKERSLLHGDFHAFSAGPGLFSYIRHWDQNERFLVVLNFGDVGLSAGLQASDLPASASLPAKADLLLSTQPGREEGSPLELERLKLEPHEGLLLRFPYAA

i3XFLAG-NLS-CTDaa154-424 was tested, and the PSMs [1] was 3 PSMs, the PSMs [2] was 5 PSMs and the PSMs [3] was 2 PSMs. The PSMs [4] was 11 PSMs, the PSMs [5] was 31 PSMs and the PSMs [6] was 2 PSMs. The PSMs [7] was 9 PSMs, the PSMs [8] was 3 PSMs and the PSMs [9] was 5 PSMs. For the same substance, the PSMs [10] was 10 PSMs, the PSMs [11] was 3 PSMs and the PSMs (Myosin-9 (Homo sapiens)) was 242 PSMs. It also gave a PSMs [12] of 2 PSMs, a PSMs [13] of 3 PSMs and a PSMs [14] of 5 PSMs. The PSMs [15] was 5 PSMs, the PSMs [16] was 2 PSMs and the PSMs [17] was 14 PSMs. It also gave a PSMs [18] of 10 PSMs, a PSMs [19] of 75 PSMs and a PSMs [20] of 70 PSMs. For the same substance, the PSMs [21] was 2 PSMs, the PSMs [22] was 5 PSMs and the PSMs [23] was 2 PSMs. It also gave a PSMs [24] of 6 PSMs, a PSMs [25] of 44 PSMs and a PSMs [26] of 6 PSMs. It also gave a PSMs (Filamin-C (Homo sapiens)) of 12 PSMs, a PSMs [27] of 1 PSMs and a PSMs [28] of 3 PSMs. The PSMs [29] was 6 PSMs, the PSMs [30] was 6 PSMs and the PSMs (Talin-1 (Homo sapiens)) was 3 PSMs. For the same substance, the PSMs [31] was 25 PSMs, the PSMs [32] was 110 PSMs and the PSMs (Vimentin (Homo sapiens)) was 55 PSMs.
